Laboratory results: the supplement of paper PMC12764529
± gives the half width of the 95% confidence interval.

Assays:
[1] = folding stability dG unfold (combined trypsin and chymotrypsin); higher = more stable
Outline: (§1)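 Sequencing followed digestion of designed mini-proteins with trypsin and chymotrypsin, each at 11 concentrations in threefold dilutions together with a no-protease condition. The mini-proteins were under 80 residues, had no cysteine, sat in a PA-tagged cDNA display construct, and were kept only if AlphaFold2 dimer inter-PAE was above 15. From the counts, Bayesian fitting gave K50, and unfolding free energy was derived against a sequence-predicted unfolded-state K50 and a shared folded-state K50, per protease or combined.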

[2] = folding stability dG unfold from chymotrypsin proteolysis; higher = more stable
Outline: as §1

[3] = folding stability dG unfold from trypsin proteolysis; higher = more stable
Outline: as §1

| Sequence | folding stability dG unfold [1] [kcal/mol] | folding stability dG unfold [2] [kcal/mol] | folding stability dG unfold [3] [kcal/mol] |
| --- | --- | --- | --- |
| SAGGSAGGSFKDVPPGLKPLREEENVLFYQLPDGSYLVLVKEGDKIKKIKASKSTSIEEAIKKSAGGSAGGS [r12_605_JUSTAS] | 1.61 ± 0.16 | 2.09 ± 0.041 | 0.44 ± 0.11 |
| SAGMKPGEVLTVEDIPPGALLRNPKGESLGPVVEVEVRALEDSVEAVVTFPDGSKATVTFPADDIVLDPSAG [r5_850_TrMRF] | 0.987 ± 0.33 | 0.991 ± 0.21 | 1.05 ± 0.19 |
| SAGGSAGGSAGEVTVPAVVPPDAVPEVVEAVERLGARAEVEWDPETGLYRVNITFDGEVGSAGGSAGGSAGG [r11_1043_TrMRF] | 0.604 ± 0.07 | 0.901 ± 0.06 | -0.00326 ± 0.067 |
| SAGGSAGGSAGGDEEAIKEAAAAAPKDTTTVPVLLPDGKEVTLEVTWHPDGSRTITVRQSAGGSAGGSAGGS [r10_1017_JUSTAS] | 1.15 ± 0.072 | 1.6 ± 0.098 | -0.0882 ± 0.15 |
| MIPLTLEYDPEKKVIRLKTPDGKPVIVEAGDKGYRVIIYDPKTGKPTVIPVTEKELLDLAKNPAFNLDLAAS [r1_18_TrMRF] | 1.65 ± 0.059 | 1.23 ± 0.076 | 1.94 ± 0.025 |
| STLEELLEAIEKLPPGAVVRITITLENGEKIELPIEMTVEELKEQLEALAAEHPGKKIEIKIEVIPKEELSA [r9_37_TrROS_Hall] | 3.43 ± 0.56 | 2.78 ± 0.28 | 3.66 ± 0.38 |
| SAGGSAGGSAPDIKIEKIGENTYKITLNFEFTFEDGSKVKVKITFTFTVNFPEDDPLLKELFSAGGSAGGSA [r18_215_TrMRF] | 3.02 ± 0.11 | 3.213 ± 0.028 | 2.71 ± 0.061 |
| SAGGSAPKEGTIWIMIPVRYERDPNGKVKPISAEQIADLFQELGFPIKIDEIFDSPGYIMIRIKVKSAGGSA [r15_225_TrROS] | 3.04 ± 0.16 | 3.204 ± 0.032 | 2.5 ± 0.075 |
| SAGGSAGGSKKKLKLVIKLKKGEKAPTAEELKKKLEELGFEIKDIKVVEKDGELYVVLEIELKSAGGSAGGS [r12_1052_TrROS_Hall] | 3.24 ± 0.32 | 3.4 ± 0.14 | 2.67 ± 0.35 |
| SAGGSAGGSAGPIDPNSTRPVPADYVVIRIRGDEKPRYFVVHPEYAKEFAERHGAELYYESAGGSAGGSAGG [r17_109_TrMRF] | 0.44 ± 0.076 | 0.582 ± 0.082 | 0.0223 ± 0.14 |
| SAGGMVTLTYTDLVEEDPEVKAAKARELAEELREKGYTVTDATFDPEAGTLTITVSADDATLEEIAASAGGS [r8_344_TrMRF] | 1.27 ± 0.099 | 1.1 ± 0.065 | 1.26 ± 0.071 |
| SAGGSAGGSAGSMTTTTTIVKLPNGTLVLETPTVTTTTFPETGTTTTTTTVTVTVLPGLSSAGGSAGGSAGG [r11_1008_JUSTAS] | 1.89 ± 0.065 | 1.3 ± 0.029 | 2.47 ± 0.076 |
| SSSAEIRAYRFPDFWLVEIDLRDGDKLVGTAVFPNDGSVSLEEVAEAFRAAHPDFDVEISAIEPVPPPPPSA [r9_364_TrMRF] | 2.01 ± 0.12 | 2.08 ± 0.063 | 1.71 ± 0.064 |
| SMKKKVVVKAKIEKIRPDGGKEELEEVFVMEVSPDDPEEIKAAIDEAIEALKKAYPNIKKIEIEEVIIEDSA [r9_436_TrMRF] | 3.79 ± 0.36 | 3.36 ± 0.21 | 3.81 ± 0.24 |
| SAGGSAGGSAGGPANLNDEPVLLIPVSSELLKLIPAEKLVELAAKLASPNVKRIYVLAPESAGGSAGGSAGG [r7_487_TrMRF] | 0.424 ± 0.088 | 0.58 ± 0.13 | 0.12 ± 0.11 |
| SAGGNLMIRVELYRPKPDPEGEWQKREVTLPMPPGEPIEELIDELRPPGWVIEIDIFDNGKPIREYYIRSAG [r5_278_TrROS] | 2.34 ± 0.35 | 2.86 ± 0.14 | 1.76 ± 0.12 |
| SAGGGLTEEQLEEEAREVAERVEKEFAEATGIEPVEILSVEVFPDGTVRITLRFKGKGGLVTYTIPLSAGGS [r16_622_TrMRF] | 3.42 ± 0.12 | 3.58 ± 0.04 | 3.16 ± 0.096 |
| SAGGSAGGSAGKMKIRVKIKRKDGKTLVIEGMSLEEIKELAEKEGFEIEKVEVVEVEPEESAGGSAGGSAGG [r11_283_TrROS_Hall] | 4.02 ± 0.21 | 4.24 ± 0.13 | 3.23 ± 0.26 |
| SAGGSAGGSAVPLTVLEEEKGEGTVVVITRGPDGKLIVTTYTKDPNSEKWTEKRTVLAPEELLSAGGSAGGS [r20_70_JUSTAS] | 1.98 ± 0.054 | 2.08 ± 0.067 | 1.73 ± 0.022 |
| SMSEKVEIDPAAIAEALKAGTEYEFDIKVTVTLFDPSNGKKVSTEEKVVKVKLKIPPPSPLPDPKNGYLLSA [r9_396_JUSTAS] | 1.29 ± 0.2 | 1.4 ± 0.079 | 1.11 ± 0.038 |
| SAGGSAIEIEPAPDNVLVVTADLPPNVPAEKLVEALKDLIPDVEFETSSSADGRHVIVLRLPPDVFSAGGSA [r15_1047_TrMRF] | 1.05 ± 0.07 | 0.961 ± 0.06 | 1.05 ± 0.044 |

| Sequence | folding stability dG unfold [1] [kcal/mol] | folding stability dG unfold [2] [kcal/mol] | folding stability dG unfold [3] [kcal/mol] |
| --- | --- | --- | --- |
| SAMEIEIEPLEKEELLKLPGAEIRLFYFPDRVLAEILLPDGTPFFVEFDPSLKPEEVLEKLLKLLEELGSAG [r14_618_TrMRF] | 4.23 ± 0.13 | 4.29 ± 0.1 | 3.98 ± 0.18 |
| SAGGSAGGSAGGKKIHLFMPKEVAEKFAKELEKLGIDSKEVEIEFHEVDIPPSLPPELKSAGGSAGGSAGGS [r10_602_TrMRF] | -0.0833 ± 0.27 | -0.594 ± 0.48 | -0.0238 ± 0.15 |
| SAGGSAGMMATKPVEVEVEIPPDDPEAAKERVEAEIKAAFPGPVEVETTSYDPEKGLLKVKVVIKKSAGGSA [r15_1024_JUSTAS] | 0.256 ± 0.33 | 0.0964 ± 0.19 | -0.497 ± 0.41 |
| SAGPPVEIPITIKIRYWKPDPDGPKPVEERTIPIPVRMPPDQLDDPAFNNFIKEALDELPPGIRMIEITSAG [r5_849_TrROS] | 1.07 ± 0.068 | 1.28 ± 0.064 | 0.526 ± 0.042 |
| SAGGEVKTLEVTLEVNGKKVRVRVELTKDGTLKVTVTFEDGTKVELEIKLPKVKVKEVKFYSLEELKSAGGS [r16_48_TrROS_Hall] | 2.06 ± 0.1 | 1.78 ± 0.05 | 2.22 ± 0.071 |
| SKTVEITLTNEDGSTVTITFNEETGKIVIKVPPNVSVEQIKALLRKLLPPGAEVTITRTPNGYYEIEVKPSA [r9_933_TrROS_Hall] | 4.14 ± 0.098 | 4.41 ± 0.13 | 3.68 ± 0.13 |
| SAMRAAVLAAAEEITAHPEFEAVGISPDGTFLFRNPATGKVYRIRLEAEDDGEGVIVRVPSIEPLDAPDSAG [r14_20_TrMRF] | 1.75 ± 0.087 | 1.92 ± 0.051 | 1.43 ± 0.028 |
| SAGGSAGGSAGGVPPGAPELRLKVTVTVTTVELDEDTNELTTTTETVTVEVTVKVGETLSAGGSAGGSAGGS [r10_133_TrROS_Hall] | 1.2 ± 0.18 | 1.17 ± 0.09 | 0.616 ± 0.11 |
| SAGGSAGGSMRLTVEVSSLEEAEKLAEEIEERFDVEIVRVEVEETEEGGLRVTFDVKLHPDLGSAGGSAGGS [r12_577_TrMRF] | 2.82 ± 0.18 | 2.94 ± 0.098 | 2.96 ± 0.16 |
| SAGGMIELTIVVKTKEEAEKAAEELARKLAEELGVEVTVTSVEVEEVEDPETGETYLVVRVRIEVKPSAGGS [r8_171_TrROS_Hall] | 4.53 ± 0.23 | 4.12 ± 0.11 | 4.75 ± 0.27 |
| SAGGSAGGSDFPVKILEVEFHPNGSITIVIQAPDGWYIKATFHVPPNGNVKMSIELIPDPDAISAGGSAGGS [r20_23_TrROS] | 3.85 ± 0.19 | 4 ± 0.15 | 3.36 ± 0.17 |
| SAGGSAGGSASNVKILGLVSVDPETGLVRLAAYDPETGKVLYFIAPNADGEPLLLEVEENPGSAGGSAGGSA [r18_296_TrMRF] | 2.21 ± 0.071 | 2.44 ± 0.056 | 1.8 ± 0.041 |
| SAGGKVFTPEHLEELLKNVPADDPNATLTVTVEVPVVVLPTTDGDDNPLPAAAAPATVTLPITVLPASAGGS [r16_708_TrMRF] | 0.837 ± 0.07 | 1.2 ± 0.018 | 0.0702 ± 0.072 |
| SAGGGMTVETTSKETPLPDGSLRRTETITITEPGGKPLTRTTTKIWDPSTGKVLETRPVSNATVVAESSAGG [r13_1008_JUSTAS] | -0.187 ± 0.14 | -0.0787 ± 0.15 | -0.944 ± 0.82 |
| SAGGSAMIKTSYDPNGKTIYTIPETGAVITVDPSTGKVTVEVDPESQANNPLPEEEVKKLAEEVLKSAGGSA [r15_735_JUSTAS] | 1.1 ± 0.043 | 1.34 ± 0.018 | 0.481 ± 0.049 |
| SAGGAPVPVSVTVEIFKRPDGYIIKVNIPSGETKTFSSLEELEKFLKENPSLKITKRTTVPIEKYYESSAGG [r13_730_JUSTAS] | 2.67 ± 0.071 | 2.83 ± 0.021 | 1.94 ± 0.047 |
| SAGGDALKGLPPGAKVKVERVNGKLVVVVEKVEVKPPPKVTLTLPPGWKLTRLELTEDGTLKAELEPSAGGS [r16_103_TrROS_Hall] | 1.79 ± 0.23 | 2.13 ± 0.068 | 1.4 ± 0.053 |
| SAGGSSMQTTVFILPGPEVPVEEVKAKIAKELGLDFETVTFIPAPSREEAEALAAALGVDGIIVEVDSAGGS [r8_245_JUSTAS] | 2.58 ± 0.052 | 2.662 ± 0.013 | 2.43 ± 0.053 |
| SGPIAELVKAHPGVPVEDLAKAIVDALKAQLPKDVPITVDAEVTPDGIKLNVTVEGDTEPFTFPFVVKPGSA [r9_805_TrMRF] | 1.2 ± 0.043 | 1.34 ± 0.038 | 0.879 ± 0.024 |
| SAGGSAGGKIIINGKEIEPGETITLPNGLKLEVVDGKIKLVVRDEETGEEKEITLSAEELKKLLSAGGSAGG [r6_940_TrROS_Hall] | 3.09 ± 0.061 | 3.26 ± 0.086 | 2.65 ± 0.12 |
| SAMVSPEEAAKLIAEKIREEHPDPNIVVPVKVEYDPETNTTTITVTVKYPDDPSTETFTYTLAPDDVLKSAG [r14_849_JUSTAS] | 1.9 ± 0.082 | 2.19 ± 0.11 | 1.53 ± 0.044 |
